From article PMC3766608, “Thermal Stability of Glucokinases in Thermoanaerobacter tengcongensis” (BioMed Research International, 2013)

Legend:
Type in all cases: biochemical, Caldanaerobacter subterraneus
purified protein [1] = substrate: Nc1ncnc2c1ncn2[C@@H]1O[C@H](COP(=O)(O)OP(=O)(O)O)[C@@H](O)[C@H]1O; assay: purified protein; conditions: glucose as co-substrate, Mg2+, Tris-HCl (pH optimum 8.0, T opt 80 °C)
coupled enzyme assay = substrate: Nc1ncnc2c1ncn2[C@@H]1O[C@H](COP(=O)(O)OP(=O)(O)OP(=O)(O)O)[C@@H](O)[C@H]1O; assay: coupled enzyme assay; conditions: Mg2+, Tris-HCl, sugar co-substrate not stated for this constant (pH optimum 7.5, T opt 70 °C)
Description: coupled enzyme assay on TTE2418 (glu/man-NacK)

purified protein [2] = substrate: Nc1ncnc2c1ncn2[C@@H]1O[C@H](COP(=O)(O)OP(=O)(O)OP(=O)(O)O)[C@@H](O)[C@H]1O; assay: purified protein; conditions: glucose as co-substrate, Mg2+, Tris-HCl pH 8.0, 75 °C

B1: TTE1961 (ADP-GLK) (Caldanaerobacter subterraneus subsp. tengcongensis MB4) (protein)
chain: MRIGVDLGGTNIAVGLVEEDGKIIATGSRPTKPERGYEAIARDIAELSFELLQRMGISVKDVKSMGIGVPGVADNEKGIVIRAVNLFWTKVPLAKEIRKYIDLPIYMENDANVAALAEATFGAGRGSKSSVTITLGTGVGSGFILDGKIYSGAHHFAPEIGHMVIGDNGIRCNCGKIGCFETYASATALIREGKKAAKRNPNTLILKFANGDIEGITAKNVIDAAKQYDEEALKIFEEYVKYLAVGIVNIINLFDPEVIILGGGVANAGDFLLKPLKKEVAENILFKELPYADIRKAELGNDAGIIGAAILS
notes: recombinant, His-tagged
Km (purified protein [1]): 900 µM

B2: TTE2418 (glu/man-NacK) (Caldanaerobacter subterraneus subsp. tengcongensis MB4) (protein)
chain: MKVIGVDIGGTKILGGLIDERGNLLEETLVYTKAHLGREKILENLFIAIDKLIDKDVKGIGIGSAGRINFKEGIVEYATDNLPGWTGCNLKQLLEDRYKIPVIADNDVNAAVIGEIWQGAGRGYKDIVMIAIGTGVGGAIVYNGEVIRGGSWSAGEIGHMILYPKGRQCNCGQRGCLEQYVSGTAIARTYSEVSKEKKIAGAEEVFLLAEKGDKMALEIVNDFVNSLSIAILSLKNLLDPEIFIIGGGVIGAKRVWWDKLKKTLENRASITPAQLENKATMVGAAKLIIDYLSKNN
notes: recombinant
Km (coupled enzyme assay): 1900 µM | Vmax (coupled enzyme assay): 51/ND

B3: TTE0090 (ATP-GLK) (Caldanaerobacter subterraneus subsp. tengcongensis MB4) (protein)
chain: MKKFLCGVDLGGTKISTGIVDENGNIIKSIKIPTMAEKGPDVVIERIEESIYQVLKDTGLEMSNLKGIGIGSPGPLNAKKGIVISPPNLPHWSNVPIVEILSKRLGIEVRLENDANAAAIGEHLFGSGRGVDNFVYITVSTGIGGGVIIEGKLYSGENSNAAEIGHHTINFDGPRCNCGNYGCFEAYASGTAIARFAREGIEKGIKTKIKELAGEGEVKAEHVFEAAKLGDEFAKELVEKEAFYLGVGIANIMAFYNPRKIAIGGGVSAQWDMLYEKMMETVRKKALKPNAEVCEVVKAQLGENIGVLGAAALLL
notes: recombinant, His-tagged
Km (purified protein [2]): 2600 µM | Vmax (purified protein [2]): 100/ND
